# Data taken from patent EP2112164A1 (Institut Pasteur Of Shanghai, dated 2009).
# What was measured:
# [1] = target: HIV-1 envelope pDOL (subtype B) (HIV-1 (subtype B)); assay: cell-based or functional assay
# [2] = target: HIV-1 envelope Q168 (subtype A) (HIV-1 (subtype A)); assay: cell-based or functional assay
binder,measurement,setting,value
"scFv/hinge/his-tag/DAF (anti-HIV-1 gp41 scFv derived from human monoclonal antibody TG15, human IgG3 hinge region, 6 x his tag, GPI anchor replacement signal … (scFv) scFv: QVQLQQWGAGLLKPSETLSLTCAVYGDSFGGHHWSWIRQPPGKGLEWIGEINFLGNTNYNPSLKSRVAISKDTSKNQFSLTLNSATAADTAVYFCARRETMETASRKRAFDIWGQGTMETVTVSAGGGGSGGGGSGGGGSAELMETTQSPPTLSASVGDRVTITCRASQSLSGWVAWYQQKPGKAPKLLIYKASTLESGVPSRFSGSGSGTVFALTISSLQPDDSATYYCQQHSAFSSTFGQGTKLEIKRTPLGDTTHTSGHHHHHHGSGTTSGTTRLLSGHTCFTLTGLLGTLVTMETGLLT","relative luciferase activity (RLA) in a single-cycle pseudotype infectivity assay, CEMss-GPI-scFv compared to CEMss-eGFP",[1],8 fold reduction
same,"relative luciferase activity (RLA) in a single-cycle pseudotype infectivity assay, CEMss-GPI-scFv compared to CEMss-eGFP",[2],180 fold reduction
